Measured values: patent US20090192084A1 (CALIFORNIA INSTITUTE OF TECHNOLOGY, published 2009)
Each block holds one binder with its values, some of them ahead of it.

B5: Flag-p47 (other, UniProt O35987 1-370, looked up)
chain: MAEERQDALREFVAVTGAEEDRARFFLESAGWDLQIALASFYEDGGDEDIVTISQATPSSVSRGTAPSDNRVTSFRDLIHDQDEEEEEEEGQRFYAGGSERSGQQIVGPPRKKSPNELVDDLFKGAKEHGAVAVERVTKSPGETSKPRPFAGGGYRLGAAPEEESAYVAGERRRHSGQDVHVVLKLWKTGFSLDNGDLRSYQDPSNAQFLESIRRGEVPAELRRLAHGGQVNLDMEDHRDEDFVKPKGAFKAFTGEGQKLGSTAPQVLNTSSPAQQAENEAKASSSILINEAEPTTNIQIRLADGGRLVQKFNHSHRISDIRLFIVDARPAMAATSFVLMTTFPNKELADENQTLKEANLLNAVIVQRLT
notes: also called RDB 2148; not shown: N-terminal Flag tag

Columns and labels:
[1] = target: B5; test: Flag co-IP, mass spectrometry and immunoblotting
[2] = target: T1, endogenous p97 (human, UniProt P55072 2-806); test: Flag co-IP, 293 cells, MudPIT MS
T1 construct: also called VCP
T1 sequence (P55072 2-806 limits assumed): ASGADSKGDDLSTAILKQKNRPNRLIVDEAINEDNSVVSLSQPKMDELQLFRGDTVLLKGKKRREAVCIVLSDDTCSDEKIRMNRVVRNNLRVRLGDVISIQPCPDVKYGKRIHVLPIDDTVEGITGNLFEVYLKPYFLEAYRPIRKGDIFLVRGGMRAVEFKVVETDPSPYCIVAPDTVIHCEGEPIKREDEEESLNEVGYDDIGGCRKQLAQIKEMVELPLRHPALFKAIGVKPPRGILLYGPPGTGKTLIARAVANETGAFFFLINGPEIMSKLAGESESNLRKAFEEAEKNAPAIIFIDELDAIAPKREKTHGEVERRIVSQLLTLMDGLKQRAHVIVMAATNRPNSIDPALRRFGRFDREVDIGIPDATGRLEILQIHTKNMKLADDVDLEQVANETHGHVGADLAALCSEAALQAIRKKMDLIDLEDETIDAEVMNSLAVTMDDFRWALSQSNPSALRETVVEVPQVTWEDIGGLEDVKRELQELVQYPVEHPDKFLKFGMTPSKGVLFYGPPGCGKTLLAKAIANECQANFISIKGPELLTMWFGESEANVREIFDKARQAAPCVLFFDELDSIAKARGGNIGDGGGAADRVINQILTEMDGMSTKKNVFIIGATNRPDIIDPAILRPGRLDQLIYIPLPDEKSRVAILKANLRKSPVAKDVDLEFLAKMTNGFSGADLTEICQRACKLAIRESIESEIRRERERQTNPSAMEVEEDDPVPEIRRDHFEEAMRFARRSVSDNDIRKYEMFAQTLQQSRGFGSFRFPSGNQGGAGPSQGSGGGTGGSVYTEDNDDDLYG
Description: (§1) For immunoprecipitation experiments, the cells were lysed in buffer A (50 mM HEPES/KOH, pH 7.5; 5 mM Mg(OAc)₂; 70 mM KOAc; 0.2% Triton X-100; 10% glycerol; 0.2 mM EDTA; protease inhibitors) and incubated with anti-Flag agarose beads (Sigma) or anti-Myc sepharose beads (Covance).
(§2) Mass spectrometrical sample analysis was performed as described previously (Graumann et al., 2004) using a high-pressure liquid chromatography pump (Agilent) in line to a LCQ DecaXP electrospray ion trap mass spectrometer (ThermoFinnigan). In brief, 2-4 mg of protein extract were incubated with anti-Flag or anti-Myc beads and the immunoprecipitated proteins were eluted with saturated urea. The eluates were then proteolitically digested using sequentially endoproteinase Lys-C and trypsin. The resulting peptide mixtures were pressure-loaded onto triphasic microcapillary columns and sample separation was achieved using a chromatography program consisting of six salt steps, each followed by an organic gradient. The eluting peptides were electrosprayed into the mass spectrometer and the column eluate was continuously analyzed. One full-range mass scan ([…]) was followed by three data-dependent tandem mass spectrometry (MS/MS) spectra. Sequence database matching was performed against the IPI human database (Kersey et al., 2004) version 3.15.1 using Sequest (Eng et al., 1994) and the results were filtered with DTASelect (Tabb et al., 2002), using the parameters indicated in Graumann et al. (2004).

[3] = target: T2, Ubiquitin conjugation factor E4 B, UBE4B (Ufd2ortholog) (human, UniProt O95155 1-1302); test: co-IP, MudPIT MS
T2 sequence (looked up): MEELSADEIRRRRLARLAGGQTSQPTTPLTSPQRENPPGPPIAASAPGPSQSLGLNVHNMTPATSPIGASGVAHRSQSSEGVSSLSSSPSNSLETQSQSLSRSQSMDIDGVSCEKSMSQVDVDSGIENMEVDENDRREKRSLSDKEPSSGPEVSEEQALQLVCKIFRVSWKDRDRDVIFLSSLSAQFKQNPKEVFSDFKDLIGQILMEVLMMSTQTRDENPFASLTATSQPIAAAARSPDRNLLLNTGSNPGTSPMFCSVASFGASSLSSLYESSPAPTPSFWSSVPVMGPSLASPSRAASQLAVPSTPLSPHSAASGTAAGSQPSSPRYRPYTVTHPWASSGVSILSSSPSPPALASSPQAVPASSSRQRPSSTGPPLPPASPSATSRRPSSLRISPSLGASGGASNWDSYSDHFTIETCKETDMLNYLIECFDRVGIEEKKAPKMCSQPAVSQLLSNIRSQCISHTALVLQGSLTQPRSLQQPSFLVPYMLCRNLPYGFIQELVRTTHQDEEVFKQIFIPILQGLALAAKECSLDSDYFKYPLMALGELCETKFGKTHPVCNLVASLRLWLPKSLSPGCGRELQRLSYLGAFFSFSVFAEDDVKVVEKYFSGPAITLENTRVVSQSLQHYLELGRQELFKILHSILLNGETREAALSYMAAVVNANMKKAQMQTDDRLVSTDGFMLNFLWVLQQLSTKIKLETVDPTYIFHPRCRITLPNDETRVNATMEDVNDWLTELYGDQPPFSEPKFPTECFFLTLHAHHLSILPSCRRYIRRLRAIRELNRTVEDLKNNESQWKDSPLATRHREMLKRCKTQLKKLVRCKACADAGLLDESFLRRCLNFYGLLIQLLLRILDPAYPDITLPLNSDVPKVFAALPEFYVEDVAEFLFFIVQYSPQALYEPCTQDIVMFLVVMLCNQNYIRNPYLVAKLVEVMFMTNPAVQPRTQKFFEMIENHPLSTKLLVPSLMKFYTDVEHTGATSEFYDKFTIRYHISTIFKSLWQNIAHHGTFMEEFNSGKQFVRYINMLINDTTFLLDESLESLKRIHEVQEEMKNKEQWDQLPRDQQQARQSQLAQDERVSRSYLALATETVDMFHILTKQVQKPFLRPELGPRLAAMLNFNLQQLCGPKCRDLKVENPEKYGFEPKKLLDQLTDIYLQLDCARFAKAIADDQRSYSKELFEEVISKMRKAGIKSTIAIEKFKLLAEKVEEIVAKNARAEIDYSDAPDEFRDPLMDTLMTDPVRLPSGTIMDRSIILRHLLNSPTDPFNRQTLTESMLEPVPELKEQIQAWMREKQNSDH

[4] = target: T1, endogenous p97; test: Flag co-IP from HeLa cells, western blot
[5] = target: T3, Cullin 2 (human, UniProt Q13617 1-745); test: Flag co-IP, HeLa cells, western blot
T3 construct: also called CUL2
T3 sequence (Q13617 whole entry): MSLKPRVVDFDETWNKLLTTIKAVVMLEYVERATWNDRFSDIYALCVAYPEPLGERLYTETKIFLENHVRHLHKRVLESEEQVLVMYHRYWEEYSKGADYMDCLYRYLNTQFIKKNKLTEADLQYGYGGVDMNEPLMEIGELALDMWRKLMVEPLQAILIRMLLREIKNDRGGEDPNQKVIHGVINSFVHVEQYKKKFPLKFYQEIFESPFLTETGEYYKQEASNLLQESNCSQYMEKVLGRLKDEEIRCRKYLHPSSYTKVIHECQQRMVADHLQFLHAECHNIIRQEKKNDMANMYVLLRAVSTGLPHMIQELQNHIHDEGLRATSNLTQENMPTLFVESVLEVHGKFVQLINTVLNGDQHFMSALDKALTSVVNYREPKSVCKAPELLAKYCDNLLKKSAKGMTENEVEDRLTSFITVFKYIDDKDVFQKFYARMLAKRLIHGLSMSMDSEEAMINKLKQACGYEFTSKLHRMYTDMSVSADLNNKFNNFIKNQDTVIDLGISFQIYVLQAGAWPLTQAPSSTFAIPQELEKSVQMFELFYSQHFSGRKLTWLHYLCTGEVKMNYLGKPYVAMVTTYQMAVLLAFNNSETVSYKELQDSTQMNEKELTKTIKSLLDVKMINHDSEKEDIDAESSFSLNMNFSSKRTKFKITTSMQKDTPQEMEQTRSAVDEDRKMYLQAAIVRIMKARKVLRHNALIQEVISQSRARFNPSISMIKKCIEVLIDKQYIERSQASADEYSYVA

[6] = target: T4, Cullin 1 (human, UniProt Q13616 1-776, limits assumed); test: Flag co-IP, HeLa cells, western blot
T4 construct: also called CUL1
T4 sequence (Q13616 whole entry): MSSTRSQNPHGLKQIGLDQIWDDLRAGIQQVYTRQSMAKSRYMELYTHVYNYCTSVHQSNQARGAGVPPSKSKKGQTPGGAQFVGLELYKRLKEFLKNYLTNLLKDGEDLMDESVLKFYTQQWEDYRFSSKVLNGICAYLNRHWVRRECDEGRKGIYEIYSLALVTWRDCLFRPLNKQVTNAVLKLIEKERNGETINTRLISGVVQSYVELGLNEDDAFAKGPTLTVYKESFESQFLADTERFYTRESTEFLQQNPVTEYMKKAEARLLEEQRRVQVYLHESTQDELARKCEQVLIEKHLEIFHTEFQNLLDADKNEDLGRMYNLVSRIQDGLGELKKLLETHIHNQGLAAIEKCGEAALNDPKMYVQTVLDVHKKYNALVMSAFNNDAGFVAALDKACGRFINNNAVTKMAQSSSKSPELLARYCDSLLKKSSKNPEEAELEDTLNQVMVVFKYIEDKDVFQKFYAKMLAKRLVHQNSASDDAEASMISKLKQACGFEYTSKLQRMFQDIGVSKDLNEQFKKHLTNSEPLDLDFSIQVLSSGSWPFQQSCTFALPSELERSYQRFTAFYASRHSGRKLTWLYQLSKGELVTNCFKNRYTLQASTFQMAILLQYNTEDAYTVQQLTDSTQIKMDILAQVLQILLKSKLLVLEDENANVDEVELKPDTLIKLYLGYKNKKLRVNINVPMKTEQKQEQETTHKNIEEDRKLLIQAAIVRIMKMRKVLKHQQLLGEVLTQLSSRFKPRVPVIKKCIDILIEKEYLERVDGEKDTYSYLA

[7] = target: T1, endogenous p97; test: Superdex 200 gel filtration of HeLa extracts, western blot
Description: Luc—luciferase (C) HeLa cell extracts were fractionated on a Superdex 200 gel filtration column. Individual fractions were concentrated by TCA precipitation and subjected to western blotting using specific antibodies. All proteins were endogenously expressed.

[8] = target: T5, endogenous NPL4 (human, UniProt Q8TAT6-2 2-617, limits assumed); test: Flag co-IP, 293 cells, MudPIT MS
T5 sequence (looked up): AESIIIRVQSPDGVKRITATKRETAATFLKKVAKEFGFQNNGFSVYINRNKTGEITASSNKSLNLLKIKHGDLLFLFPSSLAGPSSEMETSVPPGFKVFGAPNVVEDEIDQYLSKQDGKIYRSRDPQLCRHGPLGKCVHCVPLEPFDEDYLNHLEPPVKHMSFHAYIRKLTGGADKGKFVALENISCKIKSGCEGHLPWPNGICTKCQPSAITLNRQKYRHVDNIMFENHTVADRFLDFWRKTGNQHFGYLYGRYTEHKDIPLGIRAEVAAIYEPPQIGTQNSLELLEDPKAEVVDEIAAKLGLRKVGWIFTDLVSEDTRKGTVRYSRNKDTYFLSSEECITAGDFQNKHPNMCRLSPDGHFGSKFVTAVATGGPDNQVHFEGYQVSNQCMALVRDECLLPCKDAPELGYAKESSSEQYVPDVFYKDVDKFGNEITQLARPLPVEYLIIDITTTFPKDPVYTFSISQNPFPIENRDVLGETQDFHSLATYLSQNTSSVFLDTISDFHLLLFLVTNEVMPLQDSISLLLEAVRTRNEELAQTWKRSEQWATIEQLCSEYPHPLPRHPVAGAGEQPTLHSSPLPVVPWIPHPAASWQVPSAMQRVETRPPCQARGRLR
Description: as §1, §2

[9] = target: T5, endogenous NPL4; test: Flag co-IP, mass spectrometry and immunoblotting

binding result [1]: no binding
B1: endogenous UFD1 (other, human, UniProt Q92890-1 1-343, looked up)
chain: MFSFNMFDHPIPRVFQNRFSTQYRCFSVSMLAGPNDRSDVEKGGKIIMPPSALDQLSRLNITYPMLFKLTNKNSDRMTHCGVLEFVADEGICYLPHWMMQNLLLEEDGLVQLETVNLQVATYSKSKFCYLPHWMMQNLLLEEGGLVQVESVNLQVATYSKFQPQSPDFLDITNPKAVLENALRNFACLTTGDVIAINYNEKIYELRVMETKPDKAVSIIECDMNVDFDAPLGYKEPERQVQHEESTEGEADHSGYAGELGFRAFSGSGNRLDGKKKGVEPSPSPIKPGDIKRGIPNYEFKLGKITFIRNSRPLVKKVEEDEAGGRFVAFSGEGQSLRKKGRKP

binding result [4]: no binding
binding result [5]: binds
binding result [6]: binds
B3: Flag-UBXD7ΔUBX (other, not shown: small tags and cut ends)
chain: MAAHGGSAASSALKGLIQQFTTITGASESVGKHMLEACNNNLEMAVTMFLDGGGIAEEPSTSSASVSTVRPHTEEEVRAPIPQKQEILVEPEPLFGAPKRRRPARSIFDGFRDFQTETIRQEQELRNGGAIDKKLTTLADLFRPPIDLMHKGSFETAKECGQMQNKWLMINIQNVQDFACQCLNRDVWSNEAVKNIIREHFIFWQVYHDSEEGQRYIQFYKLGDFPYVSILDPRTGQKLVEWHQLDVSSFLDQVTGFLGEHGQLDGLSSSPPKKCARSESLIDASEDSQLEAAIRASLQETHFDSTQTKQDSRSDEESESELFSGSEEFISVCGSDEEEEVENLAKSRKSPHKDLGHRKEENRRPLTEPPVRTDPGTATNHQGLPAVDSEILEMPPEKAD
notes: also called UBXD7(1-400); truncated UBXD7

binding result [7]: binds
B4: endogenous UBXD7 (other, human, UniProt O94888 2-489, looked up)
chain: AAHGGSAASSALKGLIQQFTTITGASESVGKHMLEACNNNLEMAVTMFLDGGGIAEEPSTSSASVSTVRPHTEEEVRAPIPQKQEILVEPEPLFGAPKRRRPARSIFDGFRDFQTETIRQEQELRNGGAIDKKLTTLADLFRPPIDLMHKGSFETAKECGQMQNKWLMINIQNVQDFACQCLNRDVWSNEAVKNIIREHFIFWQVYHDSEEGQRYIQFYKLGDFPYVSILDPRTGQKLVEWHQLDVSSFLDQVTGFLGEHGQLDGLSSSPPKKCARSESLIDASEDSQLEAAIRASLQETHFDSTQTKQDSRSDEESESELFSGSEEFISVCGSDEEEEVENLAKSRKSPHKDLGHRKEENRRPLTEPPVRTDPGTATNHQGLPAVDSEILEMPPEKADGVVEGIDVNGPKAQLMLRYPDGKREQITLPEQAKLLALVKHVQSKGYPNERFELLTNFPRRKLSHLDYDITLQEAGLCPQETVFVQERN

Second part, the binder before the results:

B2: Flag-UBXD7 (other, UniProt O94888 1-489, looked up)
chain: MAAHGGSAASSALKGLIQQFTTITGASESVGKHMLEACNNNLEMAVTMFLDGGGIAEEPSTSSASVSTVRPHTEEEVRAPIPQKQEILVEPEPLFGAPKRRRPARSIFDGFRDFQTETIRQEQELRNGGAIDKKLTTLADLFRPPIDLMHKGSFETAKECGQMQNKWLMINIQNVQDFACQCLNRDVWSNEAVKNIIREHFIFWQVYHDSEEGQRYIQFYKLGDFPYVSILDPRTGQKLVEWHQLDVSSFLDQVTGFLGEHGQLDGLSSSPPKKCARSESLIDASEDSQLEAAIRASLQETHFDSTQTKQDSRSDEESESELFSGSEEFISVCGSDEEEEVENLAKSRKSPHKDLGHRKEENRRPLTEPPVRTDPGTATNHQGLPAVDSEILEMPPEKADGVVEGIDVNGPKAQLMLRYPDGKREQITLPEQAKLLALVKHVQSKGYPNERFELLTNFPRRKLSHLDYDITLQEAGLCPQETVFVQERN
notes: Wild-type plasmid in pCMV5B; expressed in 293 or HeLa cells and pulled down on anti-Flag beads; also called RDB 2155; not shown: N-terminal Flag tag
sequence count [2]: 77
sequence coverage [2]: 61.2%
spectrum count [2]: 375
binding result [3]: no binding

Binder: B5
sequence count [8]: 2
sequence coverage [8]: 6%
spectrum count [8]: 2
sequence count [2]: 172
sequence coverage [2]: 82.7%
spectrum count [2]: 1610
binding result [9]: no binding
